assay: yeast display, Sf9 membrane polyspecificity reagent, FACS + sequencing; frameworks hold sequencing errors
Method in brief: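 Sorting gates, low and high (top ~1%), were placed on anti-HA fluorescence to track expression and on streptavidin fluorescence to track reagent binding. A clone's polyreactivity label is taken from the gate it came out of. The reagent was 10% biotinylated, detergent-solubilized Sf9 membrane, applied for 1 hour at 4 °C to galactose-induced yeast display cells.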

Sequence	polyreactivity (PSR sort gate)
QVQLVESGGGLVQAGGSLRLSCAASGITFTQYAMGWYRQAPGKELELVAAITSSGGSTYYADSVKERFTISRDNAKNTVYLQMNSLKPEDTAVYYFIAVRRRQSDYWGQGTQVTVSS	high polyreactivity
QHQLVESGGGLVQAGGSLRLSCAASGSIFWRYVMGWYRPAPGKERELVAAISSGGGITYYADSVTGRFTISRDTAKNTLYLQMNSLKPEDTAVYYCAAYGSLSPKYGYWGQGTQVNVSS	high polyreactivity
QVQRVESGGGLVQAGGSLRLRCAASGFTLGHYAMGWYRQAPGTERELVAVITSGSSTNYADSVKGRFTISRDNAKNTVYLQMNSLKPEDTAVIYCAAEHPYFIWLYYYWGQGTQVTVSS	low polyreactivity
QDQLVESGGGLFQAGGSLRLSCAASGRTFYTYAMGRYRPAPRKERELVAAITSGDGTYYADSVKGRFTISRDNAKNTVYLQMNSLKPEDTAVYYCADTRTYQLYRWAPRYYYWGQGTQVTVSS	high polyreactivity
QVQLVESGGGLVQAGGSLRLSCAASGLTLDKYAMGWYRQAPGKERELVAGINSRGGSTYADSVKGRFTISRDNAKNTVYLQMNSMKPEDTAVYYCAADGKVQGGYYWGQGTQVTVSS	high polyreactivity
QVQLQESGGGLVQAGGSLRLSCAASGSISNSAAMAWYRQAPGKERELVVSIGHGASSNYADSVKGRFTISRDNAKNTVYLQMNSLKPEDTAVYYCAAYPGFLDGFFYWGQSTQVTVSS	high polyreactivity
QVQLVESGGVLVQAGGSLRLSCAASGITFEYYAMGWYRQAPGKERELVAAISWSGSSTYYADSVKGRFTISRDNAKNTVYLQMNSLKPEDTAVYYCNADSAWWASDDQYDYWGQGTQVTVSS	low polyreactivity
QVQLVESGGGLVQAGGSLRLSCAASGSTFFTNAMGWYRQAPGKERELVAGISYGGGRTYYADSVKGRFTISLDNAKNTVYLQMNRLKPEDTAVYYCNTVTSQAPYYSYVSWGQGTQVTVSS	high polyreactivity
QVQLVESGGGLVQAGGSLRLSCAASGSTFHRYAKGSYRQAPGKERELVARIIGSGGSTYYADSVKGRFTISRDNAKNTVYLQMNSLKPEDTAVYYCAADGLYYTYGYDYWGQGTQVTVSS	low polyreactivity
QVQLVESGGGLVQAVGSLRLSCAPSGTTFTHYAMGWYRKAPGKERELVAAISWSGGSTYYADSVKGRFTISRDNAKNTVYLQMNSLKQEDCAVYYCKTYGVSYYGSGYYWGQGTQVTVSS	high polyreactivity
QVQLVESGGGLVQAGGSLRLSCAASGSTFTPYAMGWYRQAPGKEREFVARISWTGGSTYYADSVKGRFTISRDIAKNTVYLQMNSLKPEDTAVYYCNADRYRWYDHGYYYWGQGTQVTVSS	high polyreactivity
QVQLVESGGGLVQAGGSLRLSCAASGFTFVYYAMGWYRQAPGKERALVASITQSGGSTRYADSVKGRFTISRDNAKNTVYLQMNSLKPEDTAVYYCNRRLYRRWGLDWQYYYWGQGTQVTVSS	high polyreactivity
QVQLVESGGGLVQAGGSLRLSCAASGSTFFRYAMGWYRQAPGKERELVAAISKSGGTTSYADSVKGRITISRDNAKNTVYLQMNSLKQEDTAVYYCAARVQHIYDWGQGTQVTVSS	high polyreactivity
QVQLVESGGGLVQAGGSLRLICAASGSTFVLYAMGWYRQAPGKERELVAAITKRGGNTYYADSVKGRFTISRDNAKNTVYLQMNSLKPEDTAVYYCAADHVRSPFDSWGQGTQVTVSS	low polyreactivity
QVQLVESGGGLVQAGGSLRLSCAASGRIFHYYAMGWYRQAPGKERELVAAIRWSGGDTYYADSVKGRFTISRDNAKNTVYLQMNSLKPEDTAVYYCAAYEHVYEYDYWGQGTQVTVSS	low polyreactivity
QVQLVESGGGLVQAGGSLRLSCAASGSIFWQYAMGWYRQAPGKERELVAAINWSGDTTYYADSVKGRFTISRDNAKNTVYLQMNSLKPEDTAVYFCAAVGGVSYGGSPKTHAGEDYWGQGTQVTVSS	low polyreactivity
QVQLVESGGGLVQAGGSLRLSCADSGFTFVAYAMGWYRQAPGKERELVAVISRGGSTYYADSVKGRFTISRDNAKNTVYLQMNSLKPEDTAVYYCAATYIHSYGKFYYWGQGTQLTVSS	low polyreactivity

Source: the nanobody polyreactivity screen of Harvey et al. (2022)
